In article doi:10.1101/2023.05.02.539095 (bioRxiv, 2023):

Molecular target: the molecule itself
Assay: SEC-MALS

B1: MSMEG_0317-His (wild type, made in E. coli) (natural protein)
chain: MNRAVALRIAACGLLGLGAALLIAALLLTTYTKGKIAKIPLDIDTSLVSDGTATAFDPDSLVAERFKIDRDVPVALQQQMSVEAPSNADVVTFQVGTTLRRTDRQQDAGLLLALVDTVTMNRNTAEAVSSENNPGGAVQKPRAIEDEKPPTNIALPHEGLTYRFPFDTEKKTYPFFDPIAQKAFDANYDGEEDVNGLTTYRFVQNVGYDADGKLADPIKYSSLYEDDADASVTARAEVWGVPGEPDESITMDRFYAASRTFWVDPVSGTIVKSEEHGYQYYAREALKPEVTYVDFKVTTNEESVESQVAAASDERDRIALWTRILPITFTALGLVSLVGGAVLGSFALRTESTLIDPGLDTADHGFFDTQGIQVPGAEAKTEKLPAQRPTDLPPDRPI
- stoichiometry N: 2
